Measurements: PMC3596305, “Escherichia coli NemA Is an Efficient Chromate Reductase That Can Be Biologically Immobilized to Provide a Cell Free System for Remediation of Hexavalent Chromium” (PLoS ONE, 2013)

B1: NfsB_Kp (Klebsiella pneumoniae subsp. pneumoniae MGH 78578) (protein)
chain: MDIVSVALKRYSTKAFDATKKLTAGEAEQLKTLLQYSPSSTNSQPWHFIVASTDEGKARVAKAASGTYVFNERKILDASHVVVFCAKTAMDDAWLQRVVDQEEADGRFATPDAKAANHKGRTFFADMHRKELKDDDQWMAKQVYLNVGNFLLGVAAMGLDAVPIEGVDFAILDEEFDLKAQGYTSLVVVPVGHHSAEDFNATLPKSRLPQSTTITEI
B2: YcnD_Bs (Bacillus subtilis subsp. subtilis str. 168) (protein)
chain: MNEVIKSLTDHRSIRSYTDEPVAQEQLDQIIEAVQSAPSSINGQQVTVITVQDKERKKKISELAGGQPWIDQAPVFLLFCADFNRAKIALEDLHDFKMEITNGLESVLVGAVDAGIALGTATAAAESLGLGTVPIGAVRGNPQELIELLELPKYVFPLSGLVIGHPADRSAKKPRLPQEAVNHQETYLNQDELTSHIQAYDEQMSEYMNKRTNGKETRNWSQSIASYYERLYYPHIREMLEKQGFKVEK
B3: NfsA_Kp (Klebsiella pneumoniae) (protein)
chain: MTPTIELLRSHRSIRHFTDAPVSDEQRAEIIASAQAASTSSFLQCTSIIRITDPALRERLVPLTGGQQHVAQAAEFWVFCADFNRHLQICPQAQLGLAEQLLIGVVDTALLAQNALTAAESLGLGGVYIGGLRNSIEAVTELLELPQHVLPLFGLCLGWPADNPDIKPRMPAAMLVHENRYQPLDNALLAEYDEQLAHYYLSRGSNARRDTWSDHIRRTIVKESRPFILDYLHKQGWATR
B4: MdaB_Ec (Escherichia coli K-12) (protein)
chain: SNILIINGAKKFAHSNGQLNDTLTEVADGTLRDLGHDVRIVRADSDYDVKAEVQNFLWADVVIWQMPGWWMGAPWTVKKYIDDVFTEGHGTLYASDGRTRKDPSKKYGSGGLVQGKKYMLSLTWNAPMEAFTEKDQFFHGVGVDGVYLPFHKANQFLGMEPLPTFIANDVIKMPDVPRYTEEYRKHLVEIFG
B5: AzoR_Ec (Escherichia coli K-12) (protein)
chain: SKVLVLKSSILAGYSQSNQLSDYFVEQWREKHSADEITVRDLAANPIPVLDGELVGALRPSDAPLTPRQQEALALSDELIAELKAHDVIVIAAPMYNFNISTQLKNYFDLVARAGVTFRYTENGPEGLVTGKKAIVITSRGGIHKDGPTDLVTPYLSTFLGFIGITDVKFVFAEGIAYGPEMAAKAQSDAKAAIDSIVSA
B6: YdgI_Bs (Bacillus subtilis subsp. subtilis str. 168) (protein)
chain: MIKTNDFMEIMKGRRSIRNYDPAVKISKEEMTEILEEATTAPSSVNAQPWRFLVIDSPEGKEKLAPLASFNQTQVTTSSAVIAVFADMNNADYLEEIYSKAVELGYMPQEVKDRQIAALTAHFEKLPAQVNRETILIDGGLVSMQLMLTARAHGYDTNPIGGYDKENIAETFGLDKERYVPVMLLSIGKAADEGYASYRLPIDTIAEWK
B7: ChrR_Pa (Pseudomonas aeruginosa PAO1) (protein)
chain: MSDDIKVLGISGSLRSGSYNSAALQEAIGLVPPGMSIELADISGIPLYNEDVYALGFPPAVERFREQIRAADALLFATPEYNYSMAGVLKNAIDWASRPPEQPFSGKPAAILGASAGRFGTARAQYHLRQTLVFLDVHPLNKPEVMISSAQNAFDAQGRLLDDKARELIQQQLQALQLWVRRLRG
B8: Frp_Vh1 (Vibrio harveyi) (protein)
chain: MNNTIETILAHRSIRKFTAVPITDEQRQTIIQAGLAASSSSMLQVVSIVRVTDSEKRNELAQFAGNQAYVESAAEFLVFCIDYQRHATINPDVQADFTELTLIGAVDSGIMAQNCLLAAESMGLGGVYIGGLRNSAAQVDELLGLPENSAVLFGMCLGHPDQNPEVKPRLPAHVVVHENQYQELNLDDIQSYDQTMQAYYASRTSNQKLSTWSQEVTGKLAGESRPHILPYLNSKGLAKR
B9: NemA_Ec (Escherichia coli K-12) (protein)
chain: MSSEKLYSPLKVGAITAANRIFMAPLTRLRSIEPGDIPTPLMAEYYRQRASAGLIISEATQISAQAKGYAGAPGIHSPEQIAAWKKITAGVHAENGHMAVQLWHTGRISHASLQPGGQAPVAPSALSAGTRTSLRDENGQAIRVETSMPRALELEEIPGIVNDFRQAIANAREAGFDLVELHSAHGYLLHQFLSPSSNHRTDQYGGSVENRARLVLEVVDAGIEEWGADRIGIRVSPIGTFQNTDNGPNEEADALYLIEQLGKRGIAYLHMSEPDWAGGEPYTDAFREKVRARFHGPIIGAGAYTVEKAETLIGKGLIDAVAFGRDWIANPDLVARLQRKAELNPQRAESFYGGGAEGYTDYPTL
notes: free enzyme (not PhaC fusion)
B10: NfsB_Vv (Vibrio vulnificus YJ016) (protein)
chain: MTIVQAAQSRYSTKAFDASRKLPEEKVAAVKELIRMSASSVNSQPWHFIVASSEEGKARIAKATQGGFAFNERKILDASHVVVFCAKTAIDEAYLLDLLESEDKDGRFADVEAKNGMHAGRSFFVNMHRFDLKDAHHWMEKQVYLNVGTLLLGASAMEIDAVPIEGFDAKVLDEEFGLREKGFTSVVIVPLGYHSEDDFNAKLPKSRWSAETVFTEI

What was measured:
[1] = substrate: [O]=[Cr](=[O])([OH])[OH]; test: purified protein; conditions: 1 mM NADH, 50 mM Tris-Cl pH 7.0, 22°C
[2] = substrate: [O]=[Cr](=[O])([OH])[OH]; test: cells, lysate or membranes named; conditions: 1 mM NADH, 50 mM Tris-Cl pH 7.0, 22°C, no lysate or lawsone added
[3] = substrate: NC(=O)C1=CN([C@@H]2O[C@H](COP(=O)(O)OP(=O)(O)OC[C@H]3O[C@@H](n4cnc5c(N)ncnc54)[C@H](O)[C@@H]3O)[C@@H](O)[C@H]2O)C=CC1; test: diphenylcarbazide Cr(VI) assay, Lineweaver-Burk; assay type: biochemical, Escherichia coli; conditions: 150 µM Cr(VI), 22°C, pH 7.0, free enzyme, varied: cofactor

Row | Protein | Km [1] [µM] | kcat [1] [s⁻¹] | kcat/Km [1] [M⁻¹ s⁻¹] | further results
1 | B1 | 47 ± 4 | 0.37 | 7800 | –
2 | B2 | 73 ± 2 | 0.37 | 5000 | –
3 | B3 | 1.7 ± 1.0 | 0.12 | 69000 | –
4 | B4 | 170 ± 120 | 0.2 | 1100 | –
5 | B5 | – | – | – | Km [2]: 380 µM; kcat [2]: 0.03 s⁻¹; kcat/Km [2]: 87 M⁻¹ s⁻¹
6 | B6 | 63 ± 1 | 0.48 | 7700 | –
7 | B7 | 1300 ± 100 | 1.5 | 1100 | –
8 | B8 | 3.8 ± 0.5 | 0.32 | 84000 | –
9 | B9 | – | – | – | Km [3]: 450 ± 30 µM; Km ([1]; free enzyme): 16 ± 9 µM; kcat ([1]; free enzyme): 1 s⁻¹; kcat/Km ([1]; free enzyme): 110000 M⁻¹ s⁻¹
10 | B10 | 2200 | 0.8 | 360 | –
